Data as given in US7250488 (Kyowa Kirin, dated 2007).
Where a chain is given by its changes, count along the chain named.

Tests used:
[1] = molecular target: T1, GAL4-β-catenin fusion protein (GAL4 BD fused with mβ-catenin arm, residues 141 to 664) (yeast; mouse, UniProt P04386 1-147; Q02248 141-664); assay: yeast two-hybrid, β-galactosidase activity
T1 construct: Two-hybrid bait expressed in yeast HF7C; also called bait for mβ-catenin arm
Excerpt: Specifically, both mouse fetal cDNA library for the two-hybrid system and plasmid GAL4-β-catenin prepared in (1) were introduced in yeast *Saccharomyces cerevisiae* HF7C strain (Clontech). HF7C strain is a yeast strain that is tryptophan-, leucine-, and histidine-auxotrophic, and, on the chromosome, has as a reporter gene a gene involved in histidine biosynthesis, HIS3, which has been ligated downstream of GAL1 promoter to which GAL4 BD can bind, as well as has of *E. coli*-derived β-galactosidase gene lazZ ligated downstream of a nucleotide sequence where GAL4 BD can bind (Gene, 212, 197 (1998)). A transformant containing both plasmid GAL4-β-catenin and cDNA clone for protein capable of binding to mβ-catenin arm and expresses the respective fusion proteins, is non-auxotrophic for histidine and is positive in β-galactosidase activity, because GAL4 BD is placed adjacent to GAL4 AD due the binding between mβ-catenin arm and the binding protein, the transcriptions of HIS3 gene and lacZ gene, downstream of the nucleotide sequence to which GAL4 BD binds, are activated. Four clones were finally selected, as colonies positive in β-galactosidase activity from 2.3 ×10^7 transformants which were grown on a medium without any of leucine, histidine, and tryptophan.
Each of these expression plasmids for fusion proteins of GAL4 AD and ICAT mutants was introduced together with the bait plasmid GAL4-β-catenin for mβ-catenin arm into yeast HF7C strain in the same manner as in Example 1, and then the binding of each ICAT mutant with β-catenin was evaluated based on the presence of β-galactosidase activity in the transformants.

mouse β-catenin [2] = molecular target: T2, mouse β-catenin (mouse, UniProt Q02248 2-781); assay: immunoprecipitation with anti-ICAT antibody from mouse brain lysate, Western blotting with anti-β-catenin antibody
T2 construct: mature; also called ^35S-labeled β-catenin
T2 sequence (looked up): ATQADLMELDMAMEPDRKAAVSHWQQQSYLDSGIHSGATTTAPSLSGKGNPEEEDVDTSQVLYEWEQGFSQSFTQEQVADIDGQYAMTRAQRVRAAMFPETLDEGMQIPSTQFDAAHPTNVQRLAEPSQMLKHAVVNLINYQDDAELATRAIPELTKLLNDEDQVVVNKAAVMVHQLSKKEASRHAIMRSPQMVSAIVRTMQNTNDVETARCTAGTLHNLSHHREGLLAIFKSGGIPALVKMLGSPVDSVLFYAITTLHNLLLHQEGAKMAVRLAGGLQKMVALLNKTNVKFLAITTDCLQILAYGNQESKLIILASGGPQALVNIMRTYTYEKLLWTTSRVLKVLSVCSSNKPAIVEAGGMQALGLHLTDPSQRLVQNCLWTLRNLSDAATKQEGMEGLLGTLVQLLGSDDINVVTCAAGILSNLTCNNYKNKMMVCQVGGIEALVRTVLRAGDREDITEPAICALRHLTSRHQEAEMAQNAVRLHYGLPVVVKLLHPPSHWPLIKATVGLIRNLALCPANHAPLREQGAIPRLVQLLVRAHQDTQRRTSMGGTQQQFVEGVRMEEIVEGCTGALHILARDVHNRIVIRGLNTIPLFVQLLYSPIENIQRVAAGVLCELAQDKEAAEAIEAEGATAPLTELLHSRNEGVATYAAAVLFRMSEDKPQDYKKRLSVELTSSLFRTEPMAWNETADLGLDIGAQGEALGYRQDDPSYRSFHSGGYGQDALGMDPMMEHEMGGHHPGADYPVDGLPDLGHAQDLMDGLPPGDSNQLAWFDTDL
Procedure: In the experiment for the detection of ICAT with immunoprecipitation and Western blotting using mouse brain lysate in Example 6, immunoprecipitation was carried out with the anti-ICAT antibody, and then Western blotting was performed with the anti-β-catenin monoclonal antibody (Transduction Laboratory; animal used for the immunization is mouse) as a primary antibody for the detection. […] However, when, in this experiment, the anti-ICAT antibody, which had previously been reacted to GST/ICAT, was used in the immunoprecipitation, the band of β-catenin was not detected because of inhibition of immunoprecipitation.

[3] = molecular target: T3, C-terminal portion of mouse β-catenin (residues 665 to 782), ^35S-labeled (mouse, UniProt Q02248 665-781); assay: GST/ICAT pull-down of ^35S-labeled in vitro translated protein, autoradiography
T3 construct: range 665-782; Translated in vitro with ^35S-methionine
T3 sequence (looked up): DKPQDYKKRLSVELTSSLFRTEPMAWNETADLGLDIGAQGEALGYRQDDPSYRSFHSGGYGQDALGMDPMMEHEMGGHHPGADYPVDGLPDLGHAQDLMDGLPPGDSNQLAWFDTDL
Procedure: (§1) The GST/ICAT-expressing E. coli as well as control GST-expressing E. coli prepared in Example 3 were cultured to obtain the respective bacterial lysates. Glutathione-Sepharose 4B (Amersham-Pharmacia Biotech) was added to these bacterial lysates, and […] or GST was adsorbed on it to isolate it. The GST/ICAT- or GST-adsorbed glutathione-Sepharose 4B was reacted to the above-mentioned ^35S-labeled β-catenin in buffer A containing 0.1% Triton X-100 at 4° C. for 2 hours. After the glutathione-Sepharose 4B was washed well with buffer A and then SDS-PAGE sample buffer was added thereto to elute the bound protein to the sample buffer. The eluate was used as a sample in SDS-PAGE in which the gel concentration was 15% and then the gel was visualized by autoradiography. […] Accordingly, it has been verified that GST/ICAT directly binds to β-catenin in vitro and that the site responsible for the binding to β-catenin is located within the ICAT moiety of GST/ICAT.
(§2) The region of β-catenin responsible for the binding with ICAT was determined as follows. DNA fragments encoding the region of armadillo domain of mouse β-catenin (residues 141 to 664 in the amino acid sequence), N-terminal portion (residues 1 to 140 in the amino acid sequence), and C-terminal portion (residues 665 to 782 in the amino acid sequence) were amplified by PCR. […]

[4] = molecular target: T4, N-terminal portion of mouse β-catenin (residues 1 to 140), ^35S-labeled (mouse, UniProt Q02248 1-140); assay: as above
T4 construct: range 1-140; Translated in vitro with ^35S-methionine
T4 sequence (looked up): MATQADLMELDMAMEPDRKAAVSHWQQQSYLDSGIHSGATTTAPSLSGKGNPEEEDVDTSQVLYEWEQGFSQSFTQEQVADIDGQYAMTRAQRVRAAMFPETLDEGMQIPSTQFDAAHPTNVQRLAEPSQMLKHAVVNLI
Procedure: as §1, §2

mouse β-catenin [5] = molecular target: T2, mouse β-catenin; assay: GST fusion pull-down in vitro, as in Example 8
Procedure: as §1, with “Analysis of Binding Between ICAT and β-catenin (1) Detection of the Direct Binding In Vitro The direct binding of ICAT to β-catenin was verified as follows. ^35S-labeled β-catenin was translated and synthesized from mouse β-catenin mRNA in vitro by using ^35S-labeled methionine TNT-reticulocyte lysate system (Promega). The GST/ICAT-expressing” for “The GST/ICAT-expressing”, “of GST/ICAT. […]” for “of GST/ICAT.”

B1: ICAT(1-41), GAL4 AD fusion (other, not shown: large carriers)
chain: MNREGAPGKSPEEMYIQQKVRVLLMLRKMGSNLTASEEEFL
notes: Mouse ICAT deletion mutant used as a two-hybrid prey; also called (b) ICAT(1-41)
B1: no binding [1].

B2: ICAT (42-81), GAL4 AD fusion (other, not shown: large carriers)
chain: RTYAGVVSSQLSQLPQHSIDQGAEDVVMAFSRSETEDRRQ
notes: Mouse ICAT deletion mutant used as a two-hybrid prey; also called (e) ICAT(42-81)
B2: no binding [1].

B3: mouse ICAT (inhibitor of β-catenin and TCF) (other)
chain: MNREGAPGKSPEEMYIQQKVRVLLMLRKMGSNLTASEEEFLRTYAGVVSSQLSQLPQHSIDQGAEDVVMAFSRSETEDRRQ
notes: Untagged full-length mouse ICAT (81 amino acids); It was tested expressed from pMKITneo in COS-7 and other animal cells, translated in vitro in reticulocyte lysate, and as the endogenous protein of mouse brain; also called 9-kDa protein
B3: binds (mouse β-catenin [2]).

B4: GST/ICAT (fusion protein between GST and ICAT) (other)
chain: B3 chain
notes: Mouse ICAT cDNA was subcloned between EcoRI/SalI of pGEX5X-1, so ICAT sits on the C-terminal side of GST; Expressed in E. coli; not shown: glutathione S-transferase (GST) as encoded by vector pGEX5X-1
B4: no binding [3]; no binding [4].

B5: ICAT(E37-39A) expressed as a GST fusion protein (other)
chain: B3 chain with E37A, E38A, E39A
notes: Expressed in E. coli; not shown: glutathione S-transferase (GST); made in the same manner as GST/ICAT
B5: no binding (mouse β-catenin [5]).

B6: ICAT(E37-39A), GAL4 AD fusion (other, not shown: large carriers)
chain: B3 chain with E37A, E38A, E39A
notes: The glutamic acid residues 37, 38 and 39 are converted to alanine; Used as a two-hybrid prey; also called (j) ICAT(E37-39A)
B6: no binding [1].

B7: ICAT(21-81), GAL4 AD fusion (other, not shown: large carriers)
chain: RVLLMLRKMGSNLTASEEEFLRTYAGVVSSQLSQLPQHSIDQGAEDVVMAFSRSETEDRRQ
notes: Mouse ICAT deletion mutant used as a two-hybrid prey; also called (d) ICAT(21-81)
B7: no binding [1].

B8: ICAT (21-61), GAL4 AD fusion (other, not shown: large carriers)
chain: RVLLMLRKMGSNLTASEEEFLRTYAGVVSSQLSQLPQHSID
notes: Mouse ICAT deletion mutant used as a two-hybrid prey; also called (g) ICAT(21-61)
B8: no binding [1].
